Source: IntAct's records for PubMed 36931259

B1: 14-3-3 protein sigma (Homo sapiens), P31947 (parent)
chain: MERASLIQKAKLAEQAERYEDMAAFMKGAVEKGEELSCEERNLLSVAYKNVVGGQRAAWRVLSSIEQKSNEEGSEEKGPEVREYREKVETELQGVCDTVLGLLDSHLIKEAGDAESRVFYLKMKGDYYRYLAEVATGDDKKRIIDSARSAYQEAMDISKKEMPPTNPIRLGLALNFSVFHYEIANSPEEAISLAKTTFDEAMADLHTLSEDSYKDSTLIMQLLRDNLTLWTADNAGEEGGEAPQEPQS
partner: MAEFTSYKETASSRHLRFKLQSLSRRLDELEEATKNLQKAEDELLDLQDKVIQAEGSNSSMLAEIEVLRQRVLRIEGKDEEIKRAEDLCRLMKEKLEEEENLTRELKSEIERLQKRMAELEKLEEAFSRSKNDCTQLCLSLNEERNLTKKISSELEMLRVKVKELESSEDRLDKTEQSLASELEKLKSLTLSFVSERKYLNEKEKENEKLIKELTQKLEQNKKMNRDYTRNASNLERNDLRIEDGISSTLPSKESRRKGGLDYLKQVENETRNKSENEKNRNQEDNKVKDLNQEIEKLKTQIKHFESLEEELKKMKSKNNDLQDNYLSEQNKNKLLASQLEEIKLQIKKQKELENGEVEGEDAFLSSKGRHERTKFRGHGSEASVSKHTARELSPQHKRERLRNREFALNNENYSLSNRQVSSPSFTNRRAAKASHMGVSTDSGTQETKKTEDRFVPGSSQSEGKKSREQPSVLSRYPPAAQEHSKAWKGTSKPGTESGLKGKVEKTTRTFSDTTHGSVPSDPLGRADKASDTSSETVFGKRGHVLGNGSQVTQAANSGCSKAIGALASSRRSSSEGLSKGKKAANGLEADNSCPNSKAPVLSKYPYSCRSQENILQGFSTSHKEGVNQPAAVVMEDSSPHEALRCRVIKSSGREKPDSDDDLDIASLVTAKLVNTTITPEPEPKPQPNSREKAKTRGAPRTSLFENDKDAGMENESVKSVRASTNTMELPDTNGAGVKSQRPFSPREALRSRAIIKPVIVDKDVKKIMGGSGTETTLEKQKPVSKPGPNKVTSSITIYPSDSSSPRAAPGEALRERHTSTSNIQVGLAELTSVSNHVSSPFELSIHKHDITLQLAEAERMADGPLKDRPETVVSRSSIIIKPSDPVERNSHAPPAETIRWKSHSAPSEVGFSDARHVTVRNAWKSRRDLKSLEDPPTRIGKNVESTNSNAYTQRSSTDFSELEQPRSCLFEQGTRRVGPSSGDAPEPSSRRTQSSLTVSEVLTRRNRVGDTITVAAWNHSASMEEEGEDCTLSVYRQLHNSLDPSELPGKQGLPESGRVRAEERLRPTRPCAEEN
B2: 14-3-3 protein sigma (Homo sapiens), P31947 (parent)
chain: B1 chain
partner: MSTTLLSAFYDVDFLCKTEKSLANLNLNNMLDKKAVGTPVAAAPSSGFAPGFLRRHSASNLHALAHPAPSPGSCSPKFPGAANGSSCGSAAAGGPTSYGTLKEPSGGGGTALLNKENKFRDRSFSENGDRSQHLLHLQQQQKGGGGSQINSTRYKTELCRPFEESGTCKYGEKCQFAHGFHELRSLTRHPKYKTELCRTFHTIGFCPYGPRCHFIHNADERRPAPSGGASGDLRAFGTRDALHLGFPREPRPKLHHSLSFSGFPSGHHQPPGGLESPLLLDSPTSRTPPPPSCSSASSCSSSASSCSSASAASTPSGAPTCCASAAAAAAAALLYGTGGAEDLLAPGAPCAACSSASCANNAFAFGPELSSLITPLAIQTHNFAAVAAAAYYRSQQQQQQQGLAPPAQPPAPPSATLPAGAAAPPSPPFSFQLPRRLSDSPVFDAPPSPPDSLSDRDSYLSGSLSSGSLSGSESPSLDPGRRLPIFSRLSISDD
B3: 14-3-3 protein sigma (Homo sapiens), P31947 (parent)
chain: B1 chain
partner: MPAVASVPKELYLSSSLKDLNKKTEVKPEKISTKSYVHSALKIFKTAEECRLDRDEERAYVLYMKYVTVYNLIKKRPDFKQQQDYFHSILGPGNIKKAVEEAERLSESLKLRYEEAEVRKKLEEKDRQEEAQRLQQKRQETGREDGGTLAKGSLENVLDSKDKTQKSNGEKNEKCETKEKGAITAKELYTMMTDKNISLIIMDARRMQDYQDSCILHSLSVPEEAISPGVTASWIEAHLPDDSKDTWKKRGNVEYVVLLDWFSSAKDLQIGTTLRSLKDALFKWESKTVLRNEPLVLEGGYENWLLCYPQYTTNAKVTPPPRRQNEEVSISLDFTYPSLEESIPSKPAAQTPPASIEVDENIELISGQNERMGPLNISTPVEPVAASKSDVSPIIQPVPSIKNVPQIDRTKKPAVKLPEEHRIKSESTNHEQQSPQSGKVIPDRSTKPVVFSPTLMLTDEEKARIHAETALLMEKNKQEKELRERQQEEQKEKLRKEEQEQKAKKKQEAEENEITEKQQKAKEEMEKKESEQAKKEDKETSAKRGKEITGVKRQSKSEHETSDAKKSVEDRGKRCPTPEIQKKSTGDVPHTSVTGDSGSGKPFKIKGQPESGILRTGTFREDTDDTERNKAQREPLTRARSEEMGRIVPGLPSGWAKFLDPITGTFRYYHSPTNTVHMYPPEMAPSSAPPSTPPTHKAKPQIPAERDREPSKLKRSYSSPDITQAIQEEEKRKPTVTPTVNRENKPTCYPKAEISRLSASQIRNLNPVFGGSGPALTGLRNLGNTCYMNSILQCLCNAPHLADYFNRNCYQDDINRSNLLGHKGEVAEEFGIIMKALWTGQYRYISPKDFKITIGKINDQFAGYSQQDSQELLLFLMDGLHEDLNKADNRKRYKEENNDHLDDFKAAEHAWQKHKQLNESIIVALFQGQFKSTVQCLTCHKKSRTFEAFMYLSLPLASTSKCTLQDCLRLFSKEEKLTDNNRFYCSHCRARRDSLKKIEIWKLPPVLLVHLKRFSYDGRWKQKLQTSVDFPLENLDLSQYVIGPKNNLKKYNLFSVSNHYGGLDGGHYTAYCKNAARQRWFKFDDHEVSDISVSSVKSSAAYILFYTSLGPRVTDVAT
B4: 14-3-3 protein sigma (Homo sapiens), P31947 (parent)
chain: B1 chain
partner: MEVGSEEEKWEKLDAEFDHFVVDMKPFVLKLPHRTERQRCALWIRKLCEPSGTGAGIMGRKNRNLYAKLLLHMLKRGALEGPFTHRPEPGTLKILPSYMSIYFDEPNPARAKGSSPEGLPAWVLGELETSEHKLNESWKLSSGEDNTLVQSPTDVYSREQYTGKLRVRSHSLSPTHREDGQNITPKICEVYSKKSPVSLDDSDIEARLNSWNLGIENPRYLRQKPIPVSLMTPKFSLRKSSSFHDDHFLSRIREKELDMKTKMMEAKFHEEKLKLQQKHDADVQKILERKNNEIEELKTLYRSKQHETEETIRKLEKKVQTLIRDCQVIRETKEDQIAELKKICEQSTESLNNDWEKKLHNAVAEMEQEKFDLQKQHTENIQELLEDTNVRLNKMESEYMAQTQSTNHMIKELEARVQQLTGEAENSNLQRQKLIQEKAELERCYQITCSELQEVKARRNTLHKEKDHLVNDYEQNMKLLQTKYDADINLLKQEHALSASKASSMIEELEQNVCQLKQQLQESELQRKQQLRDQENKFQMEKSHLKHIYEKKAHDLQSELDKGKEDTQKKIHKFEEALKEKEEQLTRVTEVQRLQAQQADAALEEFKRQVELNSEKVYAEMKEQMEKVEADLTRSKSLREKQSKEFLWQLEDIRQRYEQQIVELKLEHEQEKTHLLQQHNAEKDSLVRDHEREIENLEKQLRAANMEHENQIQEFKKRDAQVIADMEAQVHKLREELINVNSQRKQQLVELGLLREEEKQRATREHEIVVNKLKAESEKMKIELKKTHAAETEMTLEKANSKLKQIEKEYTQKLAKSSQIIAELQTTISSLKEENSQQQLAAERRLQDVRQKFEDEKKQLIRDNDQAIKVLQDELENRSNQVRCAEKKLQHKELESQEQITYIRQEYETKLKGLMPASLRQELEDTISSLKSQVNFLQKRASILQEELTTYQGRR
B5: 14-3-3 protein sigma (Homo sapiens), P31947 (parent)
chain: B1 chain
partner: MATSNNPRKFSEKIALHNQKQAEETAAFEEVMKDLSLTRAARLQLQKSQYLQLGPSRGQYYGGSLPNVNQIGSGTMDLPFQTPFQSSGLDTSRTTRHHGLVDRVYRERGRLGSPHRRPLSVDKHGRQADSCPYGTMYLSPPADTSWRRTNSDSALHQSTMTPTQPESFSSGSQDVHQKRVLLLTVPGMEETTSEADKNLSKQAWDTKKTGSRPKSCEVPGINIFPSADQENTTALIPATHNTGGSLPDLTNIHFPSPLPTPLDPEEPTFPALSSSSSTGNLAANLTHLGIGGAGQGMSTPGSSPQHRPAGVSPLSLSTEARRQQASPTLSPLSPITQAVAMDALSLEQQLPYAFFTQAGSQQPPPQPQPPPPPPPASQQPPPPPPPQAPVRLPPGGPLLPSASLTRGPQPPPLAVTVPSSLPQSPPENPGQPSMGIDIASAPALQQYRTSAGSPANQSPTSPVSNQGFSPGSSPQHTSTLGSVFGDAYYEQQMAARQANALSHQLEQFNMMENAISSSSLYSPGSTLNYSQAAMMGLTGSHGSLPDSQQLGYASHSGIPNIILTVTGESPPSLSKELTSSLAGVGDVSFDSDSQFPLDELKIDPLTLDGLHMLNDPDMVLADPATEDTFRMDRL

Variants of: B1
Conditions: with luzp1_human LUZP1, Q86V48

effect of a mutation on the interaction | Variant
decreasing interaction strength | MERASLIQKAKLAEQAERYEDMAAFMKGAVEKGEELSCEERNLLSVAYENVVGGQEAAWRVLSSIEQKSNEEGSEEKGPEVREYREKVETELQGVCDTVLGLLDSHLIKEAGDAESRVFYLKMKGDYYRYLAEVATGDDKKRIIDSARSAYQEAMDISKKEMPPTNPIRLGLALNFSDFHYEIANSPEEAISLAKTTFDEAMADLHTLSEDSYKDSTLIMQLLRDNLTLWTADNAGEEGGEAPQEPQS [K49E;R56E;V178D]

Variants of: B2
Conditions: with tisd_human ZFP36L2, P47974

effect of a mutation on the interaction | Variant
decreasing interaction strength | MERASLIQKAKLAEQAERYEDMAAFMKGAVEKGEELSCEERNLLSVAYENVVGGQEAAWRVLSSIEQKSNEEGSEEKGPEVREYREKVETELQGVCDTVLGLLDSHLIKEAGDAESRVFYLKMKGDYYRYLAEVATGDDKKRIIDSARSAYQEAMDISKKEMPPTNPIRLGLALNFSDFHYEIANSPEEAISLAKTTFDEAMADLHTLSEDSYKDSTLIMQLLRDNLTLWTADNAGEEGGEAPQEPQS [K49E;R56E;V178D]

Variants of: B3
Conditions: with ubp8_human USP8, P40818

effect of a mutation on the interaction | Variant
decreasing interaction strength | MERASLIQKAKLAEQAERYEDMAAFMKGAVEKGEELSCEERNLLSVAYENVVGGQEAAWRVLSSIEQKSNEEGSEEKGPEVREYREKVETELQGVCDTVLGLLDSHLIKEAGDAESRVFYLKMKGDYYRYLAEVATGDDKKRIIDSARSAYQEAMDISKKEMPPTNPIRLGLALNFSDFHYEIANSPEEAISLAKTTFDEAMADLHTLSEDSYKDSTLIMQLLRDNLTLWTADNAGEEGGEAPQEPQS [K49E;R56E;V178D]

Variants of: B4
Conditions: with ce112_human CEP112, Q8N8E3

effect of a mutation on the interaction | Variant
decreasing interaction strength | MERASLIQKAKLAEQAERYEDMAAFMKGAVEKGEELSCEERNLLSVAYENVVGGQEAAWRVLSSIEQKSNEEGSEEKGPEVREYREKVETELQGVCDTVLGLLDSHLIKEAGDAESRVFYLKMKGDYYRYLAEVATGDDKKRIIDSARSAYQEAMDISKKEMPPTNPIRLGLALNFSDFHYEIANSPEEAISLAKTTFDEAMADLHTLSEDSYKDSTLIMQLLRDNLTLWTADNAGEEGGEAPQEPQS [K49E;R56E;V178D]

Variants of: B5
Conditions: with crtc1_human CRTC1, Q6UUV9

effect of a mutation on the interaction | Variant
decreasing interaction strength | MERASLIQKAKLAEQAERYEDMAAFMKGAVEKGEELSCEERNLLSVAYENVVGGQEAAWRVLSSIEQKSNEEGSEEKGPEVREYREKVETELQGVCDTVLGLLDSHLIKEAGDAESRVFYLKMKGDYYRYLAEVATGDDKKRIIDSARSAYQEAMDISKKEMPPTNPIRLGLALNFSDFHYEIANSPEEAISLAKTTFDEAMADLHTLSEDSYKDSTLIMQLLRDNLTLWTADNAGEEGGEAPQEPQS [K49E;R56E;V178D]
